{"source": "paper doi:10.1101/2022.10.14.512271", "binders": {"B1": {"name": "FI-Oid (18-mer operator) (dsDNA)", "DNA 1": "ATTGTGAGCGCTCACAAT", "DNA 2": "ATTGTGAGCGCTCACAAT"}}, "key": {"[1]": {"target": "lac repressor M42I (Ihk) (UniProt P03023 1-360, M42I)", "sequence (P03023 whole entry M42I)": "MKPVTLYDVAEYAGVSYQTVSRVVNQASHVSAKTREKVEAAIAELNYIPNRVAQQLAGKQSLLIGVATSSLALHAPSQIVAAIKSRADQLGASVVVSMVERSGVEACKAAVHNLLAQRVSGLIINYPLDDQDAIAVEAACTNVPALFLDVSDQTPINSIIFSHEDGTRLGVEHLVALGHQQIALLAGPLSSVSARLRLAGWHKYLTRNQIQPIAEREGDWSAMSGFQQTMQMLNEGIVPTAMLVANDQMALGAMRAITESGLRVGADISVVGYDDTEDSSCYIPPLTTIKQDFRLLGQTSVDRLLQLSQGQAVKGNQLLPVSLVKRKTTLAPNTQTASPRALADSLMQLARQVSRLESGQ", "assay": "fluorescence anisotropy"}, "[2]": {"target": "lac repressor M42I/K84L (IhL) (UniProt P03023 1-360, M42I;K84L)", "sequence (P03023 whole entry M42I/K84L)": "as the sequence (P03023 whole entry M42I) above, with K84L counted along it", "assay": "fluorescence anisotropy"}}}
{"binder": "B1", "values": [{"measurement": "binding result", "setting": "[1]", "result": "binds"}, {"measurement": "binding result", "setting": "[2]", "result": "binds"}]}
